In doi:10.1101/2024.02.25.581951:

Biological target: T1, IRF3 (mouse (endogenous in mouse ESCs)), P70671
T1 chain: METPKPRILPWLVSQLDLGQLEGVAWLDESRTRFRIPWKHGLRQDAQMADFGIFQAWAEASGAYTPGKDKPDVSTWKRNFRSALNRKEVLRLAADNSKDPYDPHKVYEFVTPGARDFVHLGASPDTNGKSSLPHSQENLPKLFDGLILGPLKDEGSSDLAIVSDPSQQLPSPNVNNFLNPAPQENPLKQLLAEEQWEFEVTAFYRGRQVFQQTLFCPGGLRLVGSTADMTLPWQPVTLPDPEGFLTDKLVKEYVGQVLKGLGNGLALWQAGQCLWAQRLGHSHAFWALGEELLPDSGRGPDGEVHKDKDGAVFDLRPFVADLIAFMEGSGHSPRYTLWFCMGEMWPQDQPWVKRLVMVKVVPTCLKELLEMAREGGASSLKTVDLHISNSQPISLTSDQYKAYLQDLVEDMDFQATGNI
Assay: native gel or EMSA
Settings: remark: other sources report otherwise

B1: IRF3, P70671 1-419 (natural protein)
chain: T1 chain
  stoichiometry N: 2
